Consider 13 sequences from a protein production outcome set (Wang et al. 2014).

The nature of this data set: label from the status in PepcDB records.
For “MDHQLQQLLDLGLEAKCLLVGINGHWGRAPWWSRPQRGRWPGGCGHLPIFQGGPERICRVLLSARGRAAAAMAAVSWPAIRLALSHVANCATAVLPPLAIDRCQAMSRPQRPARRGAEGQVRIVGGRWRNTRLAVPSLTGLRPSSDRVRETLFNWLMPRLPGARVLDLFAGSGALGLEAVSRGAGHATLIERDSSLVQRLRAHVTRLDAATQVQVLQEDAVRWLERAPAALADIVFVDPPFAACLWPAVLERLPAHVAADAWLYLEAPADAPLLPAGWHLHREGATREVRYALYRRAAATLASDPTPVVSV”, the protein production entry is “failed”.

In the case of “MDHRASRTGLFILGLCFVLSLLGRGLGESFTVFLLPISGSFGWDRAEVVSIYSLTALCTGLASPLVGRLFDRSGPRVVYTLGMTLLGGALLIAAYAERLWQLQLTVGLCVGLGIAFTGNVPNSILLGRWFGARLPTAMAVVYSAIGAGVLVMLPIAQLLIDRYGWREAYLILGGAMLILLVPLSLMPWRRFAAGADAHAQRPAQDADEDGWTLGSAMRHHAFWALFATFFFTAIGMYSISAQVVAYLVDAGFTPLQAATAWGFSGVVLVVGMLGVSWLDGVIGRRPSILFSYAISITGLVLLWLLQWYPNLLLLGGFVICFGSMIGSRGPLITATAMSIFRGRRVGTIYGTISIGSGLGSAFGSWCGGLLHDLTQSYNPVLGFALVSVVLGMIPFLVVPALRERQ”, the protein production result was “failed”.

For the sequence “MDIEERINLVLKKPTEEVLTVENLRHLFEIGAPLQHYIGFEISGYIHLGTGLMAGAKIADFQKAGIKTRVFLADWHSWINDKLGGDLEVIQEVALKYFKVGMEKSIEVMGGDPKKVEFVLASEILEKGDYWQTVIDISKNVTLSRVMRSITIMGRQMGEAIDFAKLIYPMMQVADIFYQGVTIAHAGMDQRKAHVIAIEVAQKLRYHPIVHEGEKLKPVAVHHHLLLGLQEPPKWPIESEEEFKEIKAQMKMSKSKPYSAVFIHDSPEEIRQKLRKAFCPAREVRYNPVLDWVEYIIFREEPTEFTVHRPAKFGGDVTYTTFEELKRDFAEGKLHPLDLKNAVAEYLINLLEPIRRYFEKHPEPLELMRSVKITR”, the protein production entry is recorded as “not failed”.

As to “MDIFQLQGLFLVLSAILGYFLHNRLSVRIVSFVNNWINLPLIFLVTYLQRGFEVSDAKIFLTSVIYNFLMFVIVLYLTREIEPFSRGSVLINSIFMNTINLPFSILLAFRGNYEISATVAVAMATLRLPIVMIIFTYLNKGISVIHNTTNNSIIRTNLSRYLPVITFLIGGSLHYVVGSVINVDIVNTINLILILIVLYEFGYQIRRVIGEMRIKDVTSKPYMIIYISRILISPILIFLILISLGITSKIIIEQVMVTAIMAPAITNVVWARVYGFGTEIIVKSTLILTPISTIIAIIFLILY”, the protein production entry is recorded as “failed”.

For “MDIIRKISHFAGQTFGIWVIVFAVLGFSFPSLFTWISSYITIFLGIIMFGMGLTLQADDFKELVRKPWQVIIGVIAQYTIMPLVAFGLAFGLHLPAEIAVGVILVGCCPGGTASNVMTFLAKGNTALSVAVTTISTLLAPVVTPLLIMLFAKEWLPVSPGSLFISILQAVLFPIIAGLIVKMFFRKQVAKAVHALPLVSVIGIVAIVSAVVSGNRENLLQSGLLIFSVVILHNGIGYLLGFLCAKLLKMDYPSQKAIAIEVGMQNSGLGAALATAHFSPLSAVPSAIFSVWHNLSGSMLATYWSKKVKKKQAGSKSSNLSL”, the protein production result is recorded as “failed”.

Take “MDIKNGLFIIGVIPTILFAVLTFIFWWKIRKLKDLRTLRLGRLSFFALLFLWITINGIIGSGLVLTELHQNVLLLLLIAEAVVMFLIIPMIIGIIVPISIVVLTIKMWRRESKSIGNLLLAIVVLTFLVVDWIHLSMGRLPDSWIWLKILGMVYPILSIYLAWQFGIFFLSSWVYGRRVRKQRANYYVVLGAGLIQGEHVGKLLGNRILAAVKAVRDNETILVFSGGQGPDEKVSEARAMQRYAVEVLGFPIERTMLEDQSRTTYENLFFSSQLIREKFLFFTSDYHVFRAALFAAMLKLEAQGGKGGKTAMYYRVPAFIREFIAVLNYEKKKHMIRVGIIVAIFLSIAIVSQIGYFWNQR”: the protein production result is given as “failed”.

As to “MDIKYKFPFALIIASAALVGCTSNQVKKEEAKPNPLPKLAQTQTQALVPIFSQSVSSMPKADPLRLQLDTLNGVIFVPDPKGKVSAYRGKERLWTTRVTKHRLTAGTVAGEGIVVVGNIKGELIALDQQTGQQKWKAQLTGAVLSPSLIYQGRVTTIANDGTVFAHDAETGQQVWTYKMPTIQFSLRGQPSPVMLDDRTVVVASANGYVYGIDVISGVPRFQRRVAVSEGRSDIQRLIDIDGDPVVSGQYLVTVSYQGQVTVTDLTNLSVVWNQDASSNKRPAVYDNKVFVAQADGKLTAYDLGTGSKLWESDVLLNRQLSNPVMLGKDLVVGDLDGVIHLINPDSGQLIGRAKTRGEVSSLRVVDGHLYTSTRKGALTIWEVR”, the protein production entry is given as “failed”.

Regarding “MDILKTLQKHLGDVETSDFTTNAIEKSQQIAKFSRDMKNINESVGALQVLQIACKKLFNKSMGLEDKDALQASIIKQELREIVENCQFLASPLFDTQLNIAINDEIFSMIVVNPLDLLENVGEFQAYLEEKLNEIKELLGYLSESLSNPKAFMPSFSNQSLKDLLSDNLRA”, the protein production entry is “failed”.

Consider “MDISVIDATKVNTETGLHIGESNAPVKMIEFINVRCPYCRKWFEESEELLAQSVKSGKVERIIKLFDKEKESLQRGNVMHHYIDYSAPEQALSALHKMFATQDEWGNLTLEEVATYAEKNLGLKEQKDATLVSAVIAEANAAHIQFVPTIIIGEYIFDESVTEEELRGYIEK”, for which the protein production entry was “not failed”.

As to “MDKILFDIALILIFTKIGSLISIHFKMPGVLGELIAGVILGPFILNLIQANADIKLLSDLGVVFLMFLAGIETNLDELKKAGKSSFLIALGGIIIPLIVGTLSAYMFFSNFYENLFVGVILTATSVSISVQTLTELGKLNTRSGINILGAAIIDDVLGLILITVVLAISGGTKSHGSSIFMTFIYIGIFCLVSLLAIAFLPKPIDKLTQKFKPQKGLAIFSIAAALICAFTAEKLGIAAITGAYICGLVLSPITHKEYIEKRVKIISTSFLSPIFFASVGISASVKGLNFEVLLITLIMFIIAVIGKILGCSASALTLKFKKSEALQIGVGMVSRGEVAIITANIGLQAKIISEEIFLPTLIVVILTTVITPILLKIVFSHKTQKLIDKETLT”, the protein production result is “failed”.

On to “MDKQSERNESKLFISNMVESAIRIGLIFVLLMFTYDIIRPFILPVIWGAIIAVALLPLTKKLQRAYGGRRGLAATTIVLLGIALLVTPLVMVSGSIVDGATHALDVLQNGQVKIPGPKASVADWPLVGDKLYEVWTLFATNLEQAIQTFMPQIKSALTSLLGMVGGVLGSLLLSILSLAIAAGFMTYSESLASGLQTIAIRTAGENAKSWTTLIAATIKSVLLGVVGVAAIQALLIGAGFFVFGVPAAGLLTLILMILCIAQLPALLAVLPVIGYMYMTQDSTTATMFTVWAVVGALSENLLKPMFMGRGVDVPMPVILLGAIGGMLFYGIVGLFLGAVILAIWYELFVWWLSIEKAQQQEEMAELKEEEEQTESGHGAGI”, for which the protein production entry is “not failed”.

“MDKVILITGASGGIGEGIARELGRRCENIVGCTPPGPYRGHCHGDSTQEVPPWRRCWTPTVTPWQPLQAAVDTWGRIDVLVNNAGVMPLSACRSGGRVGAHDRREHQGRALGSGPYCQSWRHSVAGRSSISARSALSVVPTAAVYCATKFAVRAISDTAPGEYQYPRHLRQSRRRRKRTCEPSPTRRPWRRWTPIAPSRFSLDIARAVRQVIEAPQSVDTTEITITDRIGQL”: the protein production entry is reported as “not failed”.

For the sequence “MDLAGQGQYGQVYLAVNRESGDLVAIKVLSERQLLTRGFLRELNFLLTLQHPHVVGCQAIDYIRVHHSPQVSRSLVMDYCAGGTLRSLLEQEQALPLTTALRLTLDILSALAYAHHRGILHCDLKPENILLEVTATGWQAKVSDFGVARLIEDVKGSGQTGSPAYMAPERFYGQTMPASDLYAVGILLYEMIVGDRPFHGTPAELMAAHLSRPYTLPEGLPFLVRSIIAKALDKLPQRRYKSAAEMTMAVQLALEVIEAEHHQQPLLFSRSPAAVWLGEPQGFALPRLPQQVASTATGFYGVVGDRLWAWQARETIPEATAQWPLPPLPIQLYGSEVSAWLRINALPPQLFCIHDQLIPLDGHLPSTLNPLTIDARGYWWAETQIDSAAAELQLHVQLINGQGRRTLRCQWHGRTFVDTLLLNRRYGAVISRSQDPETAHPITHFQLFDRRGHWRLYTPLPAHLTLLTPAHHQPWQVAAFEDHPQQPLLVLLHLRPWRIQRLGLRFRPQFLCATPWGYVVAGRHSLNLVTHSGEIVGTAESEQEIDGLGFTGDRHLWLIRRQGSGCVIQTWDITTWDIHLIL”, the protein production entry is “failed”.
